Legend:
[1] = molecular target: recombinant human CD38 (Acrobio, ref CD8-H5224) (human), P28907; assay: SPR, Biacore 3000, CM5 chip, recombinant human CD38
[2] = molecular target: human CD38 on cells (Daudi cells; CD38^+ Jurkat T cells) (human), P28907; assay: cell-based or functional assay

Kd [1]: 8.8 nM
EC50, glucose uptake (2-NBDG fluorescence), human Daudi cells [2]: 0.002 nM
Binder: CMVKLKREKNPGDQNFVILEFC (modifications not checked) [β-sheet-like folded peptide … (SEQ ID NO: 10), free peptide]

Reference: patent US20230357354A1, “CD38-BINDING CD31 PEPTIDES AND USES THEREOF” (ENCEFA, priority 2020, published 2023)
